What was measured:
SEC = molecular target: the molecule itself; assay: SEC
crystal structure = molecular target: the molecule itself; assay: crystal structure

B1: short-chain dehydrogenase/reductase-family oxidoreductase from Brucella ovis ATCC 25840 (enzyme)
chain: MELLKEKLVLVTGAGRGLGAAISSGAAEQGARVILVDIDGTAAKAQADALTAKGFVAEGHALDVTDRDAVAALADDILSRFGGLDVLVNNAGVAGRAAFDQPEAVEVWDRVIGVNLEGAFNVSHALVPALKAAKGNVVHLCSVAGFVSGGSTAGYVVSKGAIRSLTQVMARDLAPHGIRVNAVAPGIMMSEMAVAQLNRPGGTDWFMNRVMMKRIGETSEVVDPVVFLASPMASYITGTILPVDGGFLAA
notes: also called BoSDR; B. ovis SDR; not shown: His6, N-terminal, kept
stoichiometry N (SEC): ~2 | stoichiometry N (crystal structure): 4

— article PMC12810213, “Crystal structure of a short-chain dehydrogenase from Brucella ovis with apo and coenzyme NAD^+-bound protomer chains” (Acta Crystallographica Section F: Structural Biology …, 2025)
